B1: Bcl-2-like protein 11 (Mus musculus), O54918-1 (parent)
chain: MAKQPSDVSSECDREGGQLQPAERPPQLRPGAPTSLQTEPQGNPDGEGDRCPHGSPQGPLAPPASPGPFATRSPLFIFVRRSSLLSRSSSGYFSFDTDRSPAPMSCDKSTQTPSPPCQAFNHYLSAMASIRQSQEEPEDLRPEIRIAQELRRIGDEFNETYTRRVFANDYREAEDHPQMVILQLLRFIFRLVWRRH
partner: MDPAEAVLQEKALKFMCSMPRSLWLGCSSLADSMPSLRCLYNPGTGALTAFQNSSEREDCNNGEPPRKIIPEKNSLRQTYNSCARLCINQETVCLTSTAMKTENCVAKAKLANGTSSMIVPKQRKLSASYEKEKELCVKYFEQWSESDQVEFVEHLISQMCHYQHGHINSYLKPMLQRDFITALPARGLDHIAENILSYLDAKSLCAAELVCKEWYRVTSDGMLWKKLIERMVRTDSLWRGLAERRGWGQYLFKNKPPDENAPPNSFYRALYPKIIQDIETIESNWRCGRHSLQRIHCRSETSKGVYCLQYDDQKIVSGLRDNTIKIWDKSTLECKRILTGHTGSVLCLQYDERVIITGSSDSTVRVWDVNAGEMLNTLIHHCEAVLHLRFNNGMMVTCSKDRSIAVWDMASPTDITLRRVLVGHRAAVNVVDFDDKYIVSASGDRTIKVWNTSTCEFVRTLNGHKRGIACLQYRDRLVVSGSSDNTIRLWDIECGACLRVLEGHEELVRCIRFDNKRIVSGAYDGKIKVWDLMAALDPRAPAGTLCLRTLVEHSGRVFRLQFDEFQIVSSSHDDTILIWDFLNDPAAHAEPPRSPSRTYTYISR
B2: Bcl-2-like protein 11 (Mus musculus), O54918-1 (parent)
chain: B1 chain

Variants of: B1
Conditions: with fbw1a_mouse Btrc

Variant	effect of a mutation on the interaction
MAKQPSDVSSECDREGGQLQPAERPPQLRPGAPTSLQTEPQGNPDGEGDRCPHGSPQGPLAPPASPGPFATRSPLFIFVRRSALLSRSSSGYFSFDTDRSPAPMSCDKSTQTPSPPCQAFNHYLSAMASIRQSQEEPEDLRPEIRIAQELRRIGDEFNETYTRRVFANDYREAEDHPQMVILQLLRFIFRLVWRRH [S83A]	increasing interaction

Variants of: B2
Conditions: with kapca_human PRKACA

Variant	effect of a mutation on the interaction
MAKQPSDVSSECDREGGQLQPAERPPQLRPGAPTSLQTEPQGNPDGEGDRCPHGSPQGPLAPPASPGPFATRSPLFIFVRRSALLSRSSSGYFSFDTDRSPAPMSCDKSTQTPSPPCQAFNHYLSAMASIRQSQEEPEDLRPEIRIAQELRRIGDEFNETYTRRVFANDYREAEDHPQMVILQLLRFIFRLVWRRH [S83A]	disrupting interaction
